Assay results from patent US20170189504A1.

Molecular target: HLA-A*24 (human)
Assay: UV-ligand exchange, anti-b2m ELISA

IFPQFLYQF [SEQ ID NO: 186 peptide …] was tested, and the peptide exchange yield was over 75%.

YYLEVGKTLI [SEQ ID NO: 211 peptide …] was tested, and the peptide exchange yield was over 75%.

Binder KYMVYPQTF [SEQ ID NO: 267 peptide …] has a peptide exchange yield of over 75%.

RFHPTPLLL [SEQ ID NO: 193 peptide …] gave a peptide exchange yield of over 75%.

Binder SYALLTYMI [SEQ ID NO: 192 peptide …] has a peptide exchange yield of over 75%.

WYVNGVNYF [SEQ ID NO: 189 peptide …] gave a peptide exchange yield of 20 to 49%.

In the case of IYQLDTASI [SEQ ID NO: 182 peptide …], the peptide exchange yield is reported as 50 to 75%.

Work on EFGSLHLEFL [SEQ ID NO: 194 peptide …] yielded a peptide exchange yield of under 20%.

VHIPEVYLI [SEQ ID NO: 205 peptide …] showed a peptide exchange yield of 50 to 75%.

Binder IYKVGAPTI [SEQ ID NO: 185 peptide …] has a peptide exchange yield of 50 to 75%.

TYIKPISKL [SEQ ID NO: 273 peptide …] was tested, and the peptide exchange yield was 50 to 75%.

For LYLDIINLF [SEQ ID NO: 181 peptide …], the peptide exchange yield was over 75%.

Binder VFQNFPLLF [SEQ ID NO: 184 peptide …] has a peptide exchange yield of over 75%.

Work on TYLRDQHFL [SEQ ID NO: 187 peptide …] yielded a peptide exchange yield of over 75%.

With FFPPTRQMGLLF [SEQ ID NO: 217 peptide …] the peptide exchange yield was over 75%.

Binder KYIPYKYVI [SEQ ID NO: 223 peptide …] has a peptide exchange yield of 50 to 75%.

QYLQDAYSF [SEQ ID NO: 272 peptide …] was tested, and the peptide exchange yield was over 75%.

Binder EYPLVINTL [SEQ ID NO: 219 peptide …] has a peptide exchange yield of 50 to 75%.

In the case of RYLNKAFHI [SEQ ID NO: 284 peptide …], the peptide exchange yield is reported as 50 to 75%.

With RYPDNLKHLYL [SEQ ID NO: 280 peptide …] the peptide exchange yield was over 75%.

With EYINQGDLHEF [SEQ ID NO: 275 peptide …] the peptide exchange yield was 50 to 75%.

Binder YYVYIMNHL [SEQ ID NO: 225 peptide …] has a peptide exchange yield of 50 to 75%.

VYPWLGALL [SEQ ID NO: 177 peptide …] showed a peptide exchange yield of over 75%.

QYSSVFKSL [SEQ ID NO: 216 peptide …] gave a peptide exchange yield of over 75%.

In the case of RYISDQLFTNF [SEQ ID NO: 278 peptide …], the peptide exchange yield is reported as over 75%.

In the case of TYIESASEL [SEQ ID NO: 279 peptide …], the peptide exchange yield is reported as 50 to 75%.

IFIEVFSHF [SEQ ID NO: 178 peptide …] showed a peptide exchange yield of 50 to 75%.

VFTSTARAF [SEQ ID NO: 183 peptide …] gave a peptide exchange yield of 50 to 75%.

KYPVEWAKF [SEQ ID NO: 289 peptide …] gave a peptide exchange yield of over 75%.

TYTQDFNKF [SEQ ID NO: 208 peptide …] gave a peptide exchange yield of 50 to 75%.

KFVDSTFYL [SEQ ID NO: 282 peptide …] showed a peptide exchange yield of over 75%.

With MYDSYWRQF [SEQ ID NO: 179 peptide …] the peptide exchange yield was over 75%.

Work on KYTSWYVAL [SEQ ID NO: 228 peptide …] yielded a peptide exchange yield of over 75%.

IFLDYEAGTLSF [SEQ ID NO: 227 peptide …] gave a peptide exchange yield of over 75%.

AYLHSHALI [SEQ ID NO: 274 peptide …] was tested, and the peptide exchange yield was over 75%.

For QYLENLEKL [SEQ ID NO: 224 peptide …], the peptide exchange yield was 50 to 75%.

TYTTVPRVAF [SEQ ID NO: 172 peptide …] showed a peptide exchange yield of over 75%.

Work on LYLDKATLI [SEQ ID NO: 198 peptide …] yielded a peptide exchange yield of 50 to 75%.

In the case of RYFKGLVF [SEQ ID NO: 188 peptide RYFKGLVF], the peptide exchange yield is reported as 50 to 75%.

GFFIFNERF [SEQ ID NO: 190 peptide …] was tested, and the peptide exchange yield was 50 to 75%.

Binder LYHDIFSRL [SEQ ID NO: 271 peptide …] has a peptide exchange yield of over 75%.

IYDDSFIRPVTF [SEQ ID NO: 180 peptide …] showed a peptide exchange yield of 50 to 75%.

FYSRLLQKF [SEQ ID NO: 203 peptide …] gave a peptide exchange yield of 50 to 75%.

With VYRDETGELF [SEQ ID NO: 226 peptide …] the peptide exchange yield was 50 to 75%.

EYQENFLSF [SEQ ID NO: 206 peptide …] gave a peptide exchange yield of 50 to 75%.

Binder VYGFQWRHF [SEQ ID NO: 276 peptide …] has a peptide exchange yield of over 75%.

In the case of RYPDNLKHL [SEQ ID NO: 286 peptide …], the peptide exchange yield is reported as 20 to 49%.

Binder VFKASKITF [SEQ ID NO: 191 peptide …] has a peptide exchange yield of 50 to 75%.

In the case of YFDKVVTL [SEQ ID NO: 215 peptide YFDKVVTL], the peptide exchange yield is reported as 20 to 49%.

In the case of RYSTGLAGNLL [SEQ ID NO: 221 peptide …], the peptide exchange yield is reported as 50 to 75%.

Binder LYLKLWNLI [SEQ ID NO: 214 peptide …] has a peptide exchange yield of 50 to 75%.

VYVSDIQEL [SEQ ID NO: 288 peptide …] was tested, and the peptide exchange yield was 50 to 75%.

Binder IYTMIYRNL [SEQ ID NO: 210 peptide …] has a peptide exchange yield of over 75%.

In the case of TYGDAGLTYTF [SEQ ID NO: 283 peptide …], the peptide exchange yield is reported as 50 to 75%.
